The source of these data is the nanobody polyreactivity screen of Harvey et al. (2022).

This data set is described as follows: yeast display, Sf9 membrane polyspecificity reagent, FACS + sequencing; frameworks hold sequencing errors. In a few lines: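 Using colony PCR, genes from sorted yeast display clones were amplified, then sequenced on MiSeq at 2 × 250 and filtered by CDR length. The clones had been stained with 10% biotinylated, detergent-solubilized Sf9 membrane reagent for 1 hour at 4 °C and sorted by FACS into low and high (top ~1%) gates on anti-HA and streptavidin fluorescence. Polyreactivity labels come from the gate of origin.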
On to “QVQLVESGGGLVQAGGSLRLSCAASGSIFSQYAMGWYRQAPGTERDFVAAINWSGGRTRYADSVKGRFTISRDNAKNTVYLQMNSLKPEDTAVYYCAKVYSLYSYSGRYDYWGQGTQVTVSS”, for which the “polyreactivity (PSR sort gate)” value was “high polyreactivity”.

Turning to “QVQLVESGGGLVQAGGSLRLSCAASGRTFPAYAMGWYRQAPGKERELVAAISYSGGRTRYADSVKGRFTISRDNAKNTVYLQMNSLKPEDTAVYYCNRVIPTQSLRDYYWGQGTQVTVSS”, the “polyreactivity (PSR sort gate)” value is “high polyreactivity”.

For the sequence “QVQLQESFVGLVQAGGSLRLICAASGNIFPTDRMGWYRQAPGKELEFVATISHGGSTNYADSVKGRFTISRDNAKHTVYLQMNSLKPEDTAVYYCAVWSLGRWRNYYWGQGTQVTVIS”, the “polyreactivity (PSR sort gate)” value is reported as “low polyreactivity”.

Turning to “QVQLVESGGGLVQAGGSLRLSCAASGRIFVVNAMGWYRQAPGKERELVATITRSGGITYYADSVKGRFTISRDNAKNTVYLQMNSLKPEDTAVYYCNADVLFYTYYTRGRFDFDYWGQGTQVTVAS”, the “polyreactivity (PSR sort gate)” value is reported as “low polyreactivity”.

As for “QVQLVESGGGLVQAGGSLRLSCAASGSIFRVYAMGWYRQAPGKERELVAGISSRGGTSTYYADSVKGRFTISRDNAKNTVYLQMNSLKPEDTAVYYCAVQVRYPGYDYWGQGTQVTVSS”, the “polyreactivity (PSR sort gate)” value is reported as “low polyreactivity”.

“QVQLVESGAGLVQAGGSLRLSCAAYGFIFRTNAMGWYRQAPGKERELVAAISNSGGRTYYADSVKGRFTLSRDNSKNTVYLQMNSLKPEDTAVYYCAAVLWYDIYYGGDYWGQGTQVTVSS”: the “polyreactivity (PSR sort gate)” value is “high polyreactivity”.

For the sequence “QVQLVESGGGLVQAGGSLRLICAASGSIFYGYAMGWYRPAPGKERELVAAISYSGDRTYYADSVKGRFTISRDNAKNSVYLQMNSLKPEDTAVYYCAAQRRYGDDYWGQGTQVTVSS”, the “polyreactivity (PSR sort gate)” value was “high polyreactivity”.

For the sequence “QVQLVESGGGLVQAGGSLRLSCAASGFTFRYYAMGWYRQAPGKERELVAAISRSDSRTYADSVKGRFTISRDNAKNTVYLQMTSLNPEDTAVYYCAARIRPLYANVRYGYWGQGTQVTVSS”, the “polyreactivity (PSR sort gate)” value is listed as “high polyreactivity”.

For “QVQLVESGGGLVQAGGSLRLSCAASGFIFYRWYALGWYIQAPGKERELVAAIRSGGSTYYADSVKGRFTISRDNAKNTVYLQMNSLKPEDTAVYYCSTSGPQYYSRHFDYWGEGTQVTVSS”, the “polyreactivity (PSR sort gate)” value is “low polyreactivity”.

“QVQLVESAGGLVQAVGSLRLSCAASGRICGIYAMGWYRQAPGKERELVAAISFIGGRTYYADSVKGRFTISRDNAKNTVYLQMNSLKPEDTAVYDCAARTVPSSRREYWGQGTQVTVSS”: the “polyreactivity (PSR sort gate)” value is “high polyreactivity”.

Consider “QVQLVESGGGSVQAGGRLRLSCAASGSIFGQYAMGWYRQAPGKERELVAAISDTDSTNYADSVKGRFTISRDNAKNTVYLQMNSLKPEDTAVYYCNADTWGYRLGYYYYKFDYWGQGTQVTVSS”, for which the “polyreactivity (PSR sort gate)” value is recorded as “low polyreactivity”.

Regarding “QVQLVASGGGLVQAGGSLRLSSAASGYIFAPNAMGWYRQAPGKERELVAAITFSGGSTSYADSVKGRFTISRDNAKNTVYLQMNSLKPEDTAVYYCNRDDAGIMDYWGLGTQVTVSS”, the “polyreactivity (PSR sort gate)” value was “low polyreactivity”.

In the case of “QVQLVESGGGLVQAGGSLRLSCAASGFIFVKNAMGWYRQAPGKERELVATINCGSSTTYADSVKGRFTISRDNAKNTVYLQMNSLKPEDTAVYYCNADDVENWTEYDYWGQGTQVTVSS”, the “polyreactivity (PSR sort gate)” value is given as “low polyreactivity”.

Consider “QVQLVESGGGLVQAGGSLRLSCAAYGGTFNGNTMGWYRQAPGKERELVAVIDWSGGSTYYADSVKGRFTISRDNAKNTVYLQMNSLKPEDTAVYYCNADSDAQFREPKGLYYWGQGTQVTVSS”, for which the “polyreactivity (PSR sort gate)” value is reported as “low polyreactivity”.

For the sequence “QVQLVESGGGLVQAGGSLRLSCAASGSTFYYYAMGWYRQAPGKERELVATISRSTARTFYADSVKGRFTISRDNAKNTVYLQMNSLKPEDTAVYYCAATSYVSVYPSYYRFGTYGYWGQGTQVTVSS”, the “polyreactivity (PSR sort gate)” value was “high polyreactivity”.

“QVQLVESGGGLVQAGGSLRLSCAASGITFVSYAMGWYRQAPGKERELVAAISSWSGGTTYYADSVKGRFTISRDNAKNTVYLQMNSLKPEDTAVYYCAAVSFGSYRLGYWGQGTQVTVSS”: the “polyreactivity (PSR sort gate)” value is on record as “high polyreactivity”.

Turning to “QVQLVESGGGLVQAGGSLRLSCAASGYTFLDYAMGWYRQAPGKERELFAAINSGGSTYYADSVKGRFTISRDNAKNSVYFQMNSLNPEDTAVSYCAREDYVSYRLLYYLFDYWGQGTQVTVSS”, the “polyreactivity (PSR sort gate)” value is given as “low polyreactivity”.

“QVQLVESGGGLVQAGGSLRLSCAASGIIFTDNALGWYRQAPGKERELVATISWSTDNTYYADSVKGRFTISRDNAKNTVYLQMNSLKPEDTAVYYCAAEEYYAYWYQYDYWGQGTQVTVSS”: the “polyreactivity (PSR sort gate)” value was “low polyreactivity”.

Take “QVHLVESGGGLVHAGGSLRLSCAASGSTFYYYAMGWYRQAPGKERELVAAIRLRGGGTYADSVKGRFTISRDNAKNTFYLQMNSLKPEDTAVYYCAARVWYHGTQFGYWGQGTQVTVSS”: the “polyreactivity (PSR sort gate)” value is recorded as “high polyreactivity”.

“QVQLLESGGGLVQAGGSLRLSCAASGRIFGVNAMGWYRQAPGKERELVAAISAGGGNTYYADSVKGRFTISRDNAKNSVYLQMNSLKPEDTAVYYCNVQRSLRMDYWGQGTQVTVSS”: the “polyreactivity (PSR sort gate)” value was “high polyreactivity”.

Take “QVQLVESGGGLVQAGGSLRLSCAASGRIFGDYGMGWYRQAPGKERELVAAITDRGGTTYYADSVKGRFTISRDNAKNTVYLQMNSLKPEDTAVYYCNARQSDIFDYDYWGQGTQVTVSS”: the “polyreactivity (PSR sort gate)” value is given as “low polyreactivity”.

Regarding “QGQLVETGGGLVQAGGSLRLSCDASGSIFYSNRGSYRQAPGKESEFVSAISGSGVRTYYADSLKGRFTISRDNAKNTVYLQMNSLKPEDNEVYYCNAGRRQDYRYNYWGQGTQVTVSS”, the “polyreactivity (PSR sort gate)” value is reported as “high polyreactivity”.

In the case of “QVQLVESGGGLVQAGGSLRLSCAASGRNFSLYAMGWYRQAPGKERELVAAISRGGSTYYADSVKGRFTISRDNAKNTVYLQMNSLKPEDTAVYYCAAAPDYRAEYDYWGQGTQVTVSS”, the “polyreactivity (PSR sort gate)” value is listed as “low polyreactivity”.

Consider “QVQLVESGRGLVQAGGSLRLSCASSGFTLSPNAMRWYRPAPGKEREFVAAISQRGGSTYYADSVKGRFTISRDNAKNTVYLQMNSLKPEDTAVYYCARDTKYKYDFWGQGTQVTVSS”, for which the “polyreactivity (PSR sort gate)” value is “low polyreactivity”.

“QVQLVESGGGLVQEGGSLRLSCAASGSIFFYYAMGWYRPAPGKERELVAAIRSGTSTNYADSVKGRFTISLDNAKNTVYLQMNSLKPEDTAVYYCNKDTDWSWSAITSPIFDYWGQGTQVTVSS”: the “polyreactivity (PSR sort gate)” value was “low polyreactivity”.

On to “QVQLVESGGGLVQAVGSLRLSCAASGLTFYSNAMGWYRQPHGKERELVATISQDGGRTYADSVKGRFTISRDNAKNTVYLQMNSLKPEDTAVYYCAADYSGNYDFGYWGQGTQVTVSS”, for which the “polyreactivity (PSR sort gate)” value was “low polyreactivity”.

As to “QVQLVESAGGLVQAGGSLSIICAASGFTFSPYTMGWYRKAPGKERELVAAINRRGVSTYYADSVKGRFTISRDNEKNTVYLQMNSLKPEDTAVYYCAAEWYYQYSIYRYGYWGQGTQVTVSS”, the “polyreactivity (PSR sort gate)” value was “low polyreactivity”.

Regarding “QVQLVESGGGLVQAGGSLRLSCAASGFTFGEYAMGWYRQEPGKERELVATISSGVGTNYADSVKGRFTISRDNAKNTVYLQMNSLKPVDTAVYYCNARGRGSDVRVYVDEGDYWGQGTQVTVSS”, the “polyreactivity (PSR sort gate)” value is given as “low polyreactivity”.

Consider “QVQLVESGGALVQAGGSLRLSCAASRFTFTRYVMGWYSQAPGKERELVAAISINGGRTYYADSVKGRFTISRDNAKNTVYLQMNSLKPEDTAVYDCAAERYYWYTEMGYWGQGTQVTVSS”, for which the “polyreactivity (PSR sort gate)” value was “high polyreactivity”.

“QVQLVDSAAGLVQARRSLRLSCAASGRTFPLNVMGWYRLAPGKEREFVAAIRWNGGSTYYADSVKGRFTISRDHAKNTVYLQLNCLIPEDTSVYYCAAQLFRRGRYAGNPMDYWGQGTQVTVSS”: the “polyreactivity (PSR sort gate)” value is given as “high polyreactivity”.

On to “QFQLVESGGGLVQAGGSLRLSCAASGITFRAYAMGWYRQAPGKERELVAAITGRFGRTYYADSVKGRFTISRDNENNSVYLQMNSLKPEDTAVYYCNAYLWRVTQTYDYWGQGTQVTVSS”, for which the “polyreactivity (PSR sort gate)” value is “high polyreactivity”.

As to “QVQLEESGGGLVQAGGSLRLSSAASGYIFDWYAMGWYRQAPGKEREFVAAISGSDGSTYYADSVKGRFTISRDNAKNTVYLQMNSLKPVDTPVYYCAADPYYGDMEYWGQGTQVTVSS”, the “polyreactivity (PSR sort gate)” value was “low polyreactivity”.

With “QVQLVESGGGLVQAGGSLRLSCAASGRIFYYYAMGWYRQAPGKERELVAAITRRGGSTYYADSVKGRFTISRDNAKNTVYLQMNSLKPEDTAVYYCAKPDRTGWLDGDYWGQGTQVTVSS”, the “polyreactivity (PSR sort gate)” value was “low polyreactivity”.

As to “QVHLVESGGGLVQAGGSLRLSCAASGRIFYSHAMGWYRQAPGKEREFVAAISWSGGGTYYADSVKGRFTISRDNAKNTVYLQMNSLKPQDTAVYYCAARFRYYGSEYDYWGQGTKVTVSS”, the “polyreactivity (PSR sort gate)” value is “low polyreactivity”.

As to “QVQLVETGGGLVQAGGSLRLSCAASGRIFYGNAMGWYRHAPGKERELVAAITRSGSSTYYADSVKGRFTISRDNAKNTVYLLMNSLKPEDTAVSYCAVKYFDYVGQYAYYYWGQGTQVTVSS”, the “polyreactivity (PSR sort gate)” value is on record as “high polyreactivity”.

As for “QVQLVESCGGLVQAGGSLRLSCAASGRTFRYYAMGWYRQAPWKERELVAAIRRGGSTTYADSVKGRFTISRDNAKNTVYLQMNSLKPEDTAVYYCAARYPGTRGDGYWGQGTQVTVSS”, the “polyreactivity (PSR sort gate)” value is recorded as “high polyreactivity”.

Regarding “QVHLVESGGGLVQAGGSLRLSSAASGSIFDGNGMGWYRQAPGKERELVASISGDGSTNYADSVKGRFTISRDNAKNTVYLQMNSLKPEDTAVYYCNARSYLTRPWWWGGPYDYWGQGTKVTVSS”, the “polyreactivity (PSR sort gate)” value is on record as “low polyreactivity”.

Turning to “QVQLVESGGGLVQAGGTLRLSCAASGRIFRENAMGWYRQAPGKERELVAAISSGGSTYYADSVKGRFTISRDNAKNTVYLQMNSLKPEDTAVYYCAADLSWSRVVFGDYDYWGQGTQVTVSS”, the “polyreactivity (PSR sort gate)” value is given as “low polyreactivity”.

Regarding “QVQLVESGGGLVQAGGILRLSCAASGIIFGYNAMGWYRQAPGKERELVAAISYGGGRTYYADSVKGRFTISRDNAKNSVYLQMNSLKPEDTAVYYCAAQYFASRSYGYDYWGQGTQVTVSS”, the “polyreactivity (PSR sort gate)” value is listed as “high polyreactivity”.

For the sequence “QVQLVESGGGLVQAGGSLRLSCDASGNTFLWYAMGWYRQAPGKERELVAAITYSGGSTYYADSVKGRFTISRDNAKITVYLQMNSLKPEDTARYYCNADYFGYDYVEYGYWGQGTQVTVSS”, the “polyreactivity (PSR sort gate)” value is “low polyreactivity”.

“QVQLVESGGGLVQAGGSLRLSCAASGRTIRGYAMGWYRQAPGKERELVAAITRSGGSTFADSVKGRFTISRDNAKNTVYLQMNSLKPEDTAVYYCAADRGYKYYYWGQGTQVTVSS”: the “polyreactivity (PSR sort gate)” value is on record as “high polyreactivity”.
